# Assay results taken from US20210393690A1 (JUNO THERAPEUTICS, published 2021).
# Where two headings read alike, the source gives them in different places.
# T1: human BCMA amino acid residues 1-54 (linear and conformational CLIPS peptide libraries) (human)
# T1 construct: Not one polypeptide in the assay: arrays of linear peptides and structural mimetics that cover residues 1-54
# T1 chain: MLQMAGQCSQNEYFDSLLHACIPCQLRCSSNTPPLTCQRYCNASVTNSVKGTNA
# T2: recombinant human BCMA-hFc (soluble human BCMA fused at its C-terminus to an Fc region of IgG) (human, UniProt Q02223 1-54, limits assumed, biotinylated in the KinExA experiment of p-1044 (site not stated))
# T2 construct: also called rhBCMA hFc; BCMA-Fc; not shown: Fc region of IgG (hFc)
# T2 sequence (looked up): T1 chain
# T3: human BCMA peptide 30SNTPPLTCQR39 (human)
# T3 construct: Peptide of the CLIPS array; could be recognized in a linear form
# T3 peptide: SNTPPLTCQR
# B1: BCMA-55-scFv-mFc (Fc fusion, not shown: a dimerising Fc or GST)
# chain: QSALTQPASVSASPGQSIAISCTGTSSDVGWYQQHPGKAPKLMIYEDSKRPSGVSNRFSGSKSGNTASLTISGLQAEDEADYYCSSNTRSSTLVFGGGTKLTVLGSRGGGGSGGGGSGGGGSLEMAEVQLVQSGAEMKKPGASLKLSCKASGYTFIDYYVYWMRQAPGQGLESMGWINPNSGGTNYAQKFQGRVTMTRDTSISTAYMELSRLRSDDTAMYYCARSQRDGYMDYWGQGTLVTVSS
# B2: BCMA-55 scFv-Fc fusion protein (Fc fusion)
# chain: B1 chain
# notes: Fc fusion protein containing the scFv portion of the BCMA-55 CAR; also called BCMA-55-Fc; not shown: Fc region
# B3: BCMA-23 anti-BCMA scFv (scFv)
# scFv: EVQLVESGGGLVKPGGSLRLSCAASGFTFSDYYMSWIRQAPGKGLEWVSYISSSGSTIYYADSVKGRFTISRDNAKNSLYLQMNSLRAEDTAVYYCAKVDGDYTEDYWGQGTLVTVSSGGGGSGGGGSGGGGSQSALTQPASVSGSPGQSITISCTGSSSDVGKYNLVSWYQQPPGKAPKLIIYDVNKRPSGVSNRFSGSKSGNTATLTISGLQGDDEADYYCSSYGGSRSYVFGTGTKVTVL
# B4: BCMA-25 anti-BCMA scFv (scFv)
# scFv: EVQLVQSGGGLVQPGRSLRLSCTASGFTFGDYAMSWFRQAPGKGLEWVGFIRSKAYGGTTEYAASVKGRFTISRDDSKSIAYLQMNSLKTEDTAVYYCAAWSAPTDYWGQGTLVTVSSGGGGSGGGGSGGGGSDIQMTQSPAFLSASVGDRVTVTCRASQGISNYLAWYQQKPGNAPRLLIYSASTLQSGVPSRFRGTGYGTEFSLTIDSLQPEDFATYYCQQSYTSRQTFGPGTRLDIK
# B5: BCMA-26 anti-BCMA scFv (scFv)
# scFv: EVQLVESGGGLVKPGGSLRLSCAASGFTFSDYYMSWIRQAPGKGLEWVSYISSSGSTIYYADSVKGRFTISRDNAKNSLYLQMNSLRAEDTAVYYCAKVDGPPSFDIWGQGTMVTVSSGGGGSGGGGSGGGGSSYVLTQPPSVSVAPGQTARITCGANNIGSKSVHWYQQKPGQAPMLVVYDDDDRPSGIPERFSGSNSGNTATLTISGVEAGDEADYFCHLWDRSRDHYVFGTGTKLTVL
# B6: BCMA-52-scFv-mFc (Fc fusion, not shown: a dimerising Fc or GST)
# chain: SYELTQPPSASGTPGQRVTMSCSGTSSNIGSHSVNWYQQLPGTAPKLLIYTNNQRPSGVPDRFSGSKSGTSASLAISGLQSEDEADYYCAAWDGSLNGLVFGGGTKLTVLGSRGGGGSGGGGSGGGGSLEMAEVQLVQSGAEVKKPGESLKISCKGSGYSFTSYWIGWVRQMPGKGLEWMGIIYPGDSDTRYSPSFQGHVTISADKSISTAYLQWSSLKASDTAMYYCARYSGSFDNWGQGTLVTVSS
# B7: BCMA-55-LS-O/SSE CAR (other)
# chain: QSALTQPASVSASPGQSIAISCTGTSSDVGWYQQHPGKAPKLMIYEDSKRPSGVSNRFSGSKSGNTASLTISGLQAEDEADYYCSSNTRSSTLVFGGGTKLTVLGSRGGGGSGGGGSGGGGSLEMAEVQLVQSGAEMKKPGASLKLSCKASGYTFIDYYVYWMRQAPGQGLESMGWINPNSGGTNYAQKFQGRVTMTRDTSISTAYMELSRLRSDDTAMYYCARSQRDGYMDYWGQGTLVTVSSESKYGPPCPPCPAPPVAGPSVFLFPPKPKDTLMISRTPEVTCVVVDVSQEDPEVQFNWYVDGVEVHNAKTKPREEQFQSTYRVVSVLTVLHQDWLNGKEYKCKVSNKGLPSSIEKTISKAKGQPREPQVYTLPPSQEEMTKNQVSLTCLVKGFYPSDIAVEWESNGQPENNYKTTPPVLDSDGSFFLYSRLTVDKSRWQEGNVFSCSVMHEALHNHYTQKSLSLSLGKMFWVLVVVGGVLACYSLLVTVAFIIFWVKRGRKKLLYIFKQPFMRPVQTTQEEDGCSCRFPEEEEGGCELRVKFSRSADAPAYQQGQNQLYNELNLGRREEYDVLDKRRGRDPEMGGKPRRKNPQEGLYNELQKDKMAEAYSEIGMKGERRRGKGHDGLYQGLSTATKDTYDALHMQALPPR
# notes: Chimeric antigen receptor on the surface of Jurkat cells, Jurkat Nur77 reporter cells or primary T cells; also called BCMA-55-LS CAR; BCMA-55-L CAR
# Experiments:
# [1] = molecular target: T1, human BCMA amino acid residues 1-54 …; assay: CLIPS peptide array ELISA
# Experimental: (§1) Epitopes recognized, e.g., specifically bound to, by exemplary anti-BCMA scFv clones (BCMA-1, BCMA-5, BCMA-9, BCMA-23, BCMA-25, BCMA-26, BCMA-52 and BCMA-55 anti-BCMA scFvs), were assessed using full discontinuous epitope mapping by Chemical Linkage of Peptides onto Scaffolds (CLIPS; Pepscan Presto BV, Lelystad, The Netherlands; see, e.g., Timmerman et al., (2007) J. Mol. Recognit. 20: 283-329). Mapping was carried out using anti-BCMA scFv clones, such as those fused with mouse Fc (scFv-mFc).
# (§2) Linear and conformational peptide libraries of amino acid residues 1-54 of human BCMA (set forth as amino acid residues 1-54 of SEQ ID NO:164) were generated based on a combinatorial matrix design. Linear peptides and structural mimetics including single loop, α-helix, β-turn, combinatorial and linear disulfide bridge mimics, and discontinuous epitope mimics were used, along with positive and negative control peptides, on an amino-functionalized solid support.
# (§3) Affinities for binding to the peptides in the epitope library were determined using ELISA. The peptide arrays were incubated with a solution containing the scFv overnight at 4° C. Affinity information was used in iterative screens to define the sequence and conformation of epitopes. Heat maps of affinity information for two or more loops were generated.
# [2] = molecular target: T2, recombinant human BCMA-hFc (soluble …); assay: Biacore-based assay; scFv-Fc and recombinant human BCMA fusion protein; scFv-Fc fusion, Biacore-based assay
# [3] = molecular target: T3, human BCMA peptide 30SNTPPLTCQR39; assay: CLIPS peptide array ELISA
# Experimental: as §1, §2, §3
# [4] = molecular target: T2, recombinant human BCMA-hFc (soluble …); assay: KinExA kinetic exclusion analysis; serially diluted CAR-expressing Jurkat cells equilibrated with 20 nM or 1 nM biotinylated rhBCMA hFc
# Experimental: In a further experiment, Jurkat cells were transduced with a polynucleotide encoding a CAR with a BCMA-55-derived scFv binding domain and were cultured to a density of ˜2×10⁶. The cells were harvested and spun at 1500 g for 15 minutes at 4° C. The cell pellet was washed and cells were resuspended and serially diluted in 20 nM or 1 nM biotinylated rhBCMA hFc (also referred to in this assay as the constant binding partner (CBP). After equilibration, cells were spun down and supernatants were harvested for KinExa kinetic exclusion analysis. Briefly, supernatants from equilibrated BCMA-55-LS CAR O/SSE-expressing Jurkat cells containing rhBCMA hFc were flowed over a streptavidin bead flow cell to capture free biotinylated rhBCMA hFc. The rhBCMA was then detected using a secondary anti-hBCMA antibody that was fluorescently labelled. The […] of the detected rhBCMA hFc was recorded for each sample, and plotted against the number of cells in each dilution (Darling (2004) Assay Drug. Dev., 2:647-657).
# [5] = molecular target: T4, cynoBCMA coated on 96-well flat-bottom plates (cynomolgus monkey); assay: cell-based or functional assay
# T4 sequence (chain, as listed by the source): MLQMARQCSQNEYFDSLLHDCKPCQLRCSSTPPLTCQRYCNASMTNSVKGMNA
# [6] = molecular target: T4, cynoBCMA coated on 96-well flat-bottom …; assay: cell-based or functional assay; remark: listed apart in the source
# [7] = molecular target: T2, recombinant human BCMA-hFc (soluble …); assay: kinetics exclusion assay; CAR expressed in a Jurkat T cell line, soluble rhBCMA hFc; CAR on Jurkat cells, kinetics exclusion assay
# [8] = molecular target: T2, recombinant human BCMA-hFc (soluble …); assay: cell-based or functional assay
binder,measurement,setting,value
B1,binding result,[1],binds
B2,Kd,[2],~10 nM
B3,binding result,[3],binds
B4,binding result,[3],binds
B5,binding result,[1],binds
B6,binding result,[1],binds
B7,Kd,[4],~1.46 nM
same,EC50 (read off the curve),[5],~1 µg/mL
same,EC50 (read off the curve),[6],~0.9 µg/mL
same,Kd,[7],~1 nM
same,EC50 (read off the curve),[8],~0.2 µg/mL
